Data published in the supplement of paper PMC10567573.
± gives the standard deviation.

Assay: protein stability index of a GFP-peptide fusion (GPS, HEK-293T) (PSI 1-6); higher = more stable
[1] = treatment: DMSO, c terminus: a fixed tail appended
[2] = treatment: MLN4924 1 uM, 8 h, c terminus: a fixed tail appended
[3] = treatment: DMSO, c terminus: native
[4] = treatment: MLN4924 1 uM, 8 h, c terminus: native
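Note: 24-mer peptide tiles fused after GFP, lentivirally expressed, FACS-sorted into six equal bins by GFP/DsRed ratio, decoded by Illumina sequencing, PSI is the read-weighted mean bin number.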

Sequence | protein stability index [1] | protein stability index [2] | protein stability index [3] | protein stability index [4]
CHECGKKFSQNSHLIKHRRTHTGE [ZNF75A] | 5.19 ± 0.29 | 4.72 ± 0.25 | – | –
SVSQDFPGSNLNLLTNNSGTPKDH [ETS2] | 4.8 ± 0.38 | 4.83 ± 0.27 | – | –
FTGELAESRQTEVVIRDIDERAME [KLHL20] | 4.69 ± 0.21 | 4.89 ± 0.33 | – | –
LQELLTHDTKDQSPSRAPGLRQRA [HMOX1] | 4.33 ± 0.26 | 4.62 ± 0.33 | – | –
LYVDSLFFLRGRLDQLLRHVMNPL [PRAME] | 3.38 ± 0.99 | 1.89 ± 0.53 | – | –
VGGGFGGGFGGGDGGLLSGNEKIT [KRT15] | 4.04 ± 0.39 | 4.16 ± 0.14 | – | –
LDITNPKAVLENALRNFACLTTGD [UFD1] | 2.65 ± 0.21 | 2.46 ± 0.19 | – | –
DGKLFPSDGFRDCKKGDPKHGKRK [ELF3] | 5.1 ± 0.29 | 5.38 ± 0.26 | – | –
MGEPAGVAGTMESPFSPGLFHRLD [ATF6] | 3.58 ± 0.14 | 3.79 ± 0.36 | – | –
TQHKFICEQCGKCKCGECTAPRTL [SPRY1] | 4 ± 0.22 | 3.87 ± 0.18 | – | –
LRQAQQNMDPKAAEEEEEEEEEVD [CCND1] | 5.64 ± 0.35 | 5.56 ± 0.33 | – | –
RRFIQSCPIIRIPNRFLRGHRPPP [KLHDC10] | 2.67 ± 0.18 | 2.73 ± 0.43 | – | –
QQIQGLISSIEAQLSELRSEMECQ [KRT13] | 3.6 ± 0.14 | 3.44 ± 0.5 | – | –
YMRYSRKVWDQVKASNPDLKLWEI [SMARCE1] | 2.18 ± 0.73 | 1.95 ± 0.066 | – | –
KFSLLNAKREETKAMESQRAYRFV [SPOPL] | 3.06 ± 0.42 | 3.13 ± 0.23 | – | –
TLSRPPPAQVPREVLKVQTHLENP [TFE3] | 4.3 ± 0.11 | 4.41 ± 0.19 | – | –
LSQRVMCNDLFKVNPFQLQQFRAD [TIAF1] | 2.48 ± 0.18 | 2.5 ± 0.32 | – | –
VCNKKFKMKHHLTEHMKTHTGLKP [ZBTB22] | 3.18 ± 0.14 | 3.21 ± 0.23 | – | –
NPALQLILTRTDKTLNKKLGQNK [TOR1AIP2] | – | – | 3.87 ± 0.16 | 3.89 ± 0.12
GHRSIYLALKLPDGSYALNGEYTL [ADAMTS4] | 2.96 ± 0.94 | 2.63 ± 0.67 | – | –
EKDERQRTTKPMAQRSAHCSRPSG [CSNK1G1] | 5.12 ± 0.11 | 4.98 ± 0.29 | – | –
TGLSGGKRPSQEEDTQSIGPKVQR [CRY1] | 5 ± 0.33 | 5.04 ± 0.23 | – | –
CVSRNSHLTSVTSESEQEFLYKTA [CD207] | 3.34 ± 0.51 | 3.81 ± 0.17 | – | –

Sequence | protein stability index [1] | protein stability index [2] | protein stability index [3] | protein stability index [4]
MGETKIIYHLDGQETPYLVKLPLP [DVL3] | 2.2 ± 0.3 | 2.3 ± 0.23 | – | –
PTRCLPGHKEEEDGEGAGPGEQGG [ESRRA] | 5.68 ± 0.3 | 5.38 ± 0.26 | – | –
MTEEVIVIAKWDYTAQQDQELDIK [NCK2] | 2.92 ± 0.29 | 2.97 ± 0.33 | – | –
LFCEVSVVQDSVNISGHTNTNTLK [SPOPL] | 2.76 ± 0.4 | 2.84 ± 0.67 | – | –
DGSDFQHRERVAMHYQMSVTLKYE [JAGN1] | 2.62 ± 0.26 | 2.87 ± 0.24 | – | –
CRKCIASSGCFMEYLENQVIKDKD [RNF180] | 2.42 ± 0.26 | 2.5 ± 0.41 | – | –
DGTGRMPTLKKCEDVARPTQRLWD [GALNT9] | 4.01 ± 0.31 | 4.13 ± 0.19 | – | –
QPQALLVDGDQSKILISGLEPSTP [TNXB] | 4.73 ± 0.31 | 4.69 ± 0.23 | – | –
DIAAGEELLYDYGDRSKASIEAHP [KMT5A] | 5.09 ± 0.2 | 5.28 ± 0.19 | – | –
EKNLLLQNQVDELERKFRCQQEQL [LRRC45] | 4.27 ± 0.31 | 4.34 ± 0.23 | – | –
VESSLNVKTKKNAPSATIHQGEEE [FBXO34] | 5.37 ± 0.22 | 5.49 ± 0.2 | – | –
YYTMDPTQHVNNWMKHNVADSQIT [PTPRD] | 2.95 ± 0.31 | 2.93 ± 0.5 | – | –
GPRPVQSVVPEMEESGAQLLLEML [CDK4] | 3.91 ± 0.66 | 3.71 ± 0.15 | – | –
SLGGIRACTLTVFPPEETTPSPSR [KLHL13] | 3.63 ± 0.21 | 3.77 ± 0.17 | – | –
FTQNQIEVLENVFRVNCYPGIDIR [HESX1] | 2.42 ± 0.4 | 2.14 ± 0.68 | – | –
HELVWAKMKGFGFWPAKVMQKEDN [ZMYND11] | 3.06 ± 0.37 | 3.09 ± 0.47 | – | –
RRVRLELWDTSGQGRFCTIFRSYS [RAB40C] | 2.35 ± 0.5 | 1.99 ± 0.29 | – | –
SPWDQEERPAQRDCSFPGLPRHQD [TRAF3IP2] | 5.48 ± 0.23 | 5.36 ± 0.38 | – | –
VEKQADTLNVIELNVQKTVDYTGQ [STX11] | 4.6 ± 0.21 | 4.58 ± 0.15 | – | –
FMYNLVQFLGFSWIFVNLTVRFCI [HACD3] | 3.58 ± 1.3 | 2.82 ± 0.15 | – | –
SLFSYGLRESIASYLSLTSEDNTS [SLA] | 2.49 ± 0.19 | 2.61 ± 0.22 | – | –
FRVLCTAPAKYTVFDAEGYVKPQS [MOSPD3] | 2.02 ± 0.35 | 2.19 ± 0.53 | – | –
QGVEGDHCVTSDPATSPLVLAIPR [TRIM35] | 4.43 ± 0.27 | 4.66 ± 0.22 | – | –

Sequence | protein stability index [1] | protein stability index [2] | protein stability index [3] | protein stability index [4]
NDYICPATNQCTIDKNRRKSCQAC [ESR2] | 4.44 ± 0.21 | 4.83 ± 0.17 | – | –
EGRGGRPGSTRPHRSACSSAAVRG [HAGHL] | 4.52 ± 0.17 | 4.58 ± 0.19 | – | –
YVLKYMESNAAQYSPEALASIQNH [EFHC1] | 2.31 ± 0.14 | 2.35 ± 0.24 | – | –
QNKIRACGERLSLGLSRAQPVQSK [PDLIM7] | 3.92 ± 0.28 | 3.85 ± 0.2 | – | –
KLKGAEVTYMNMTAYNKGRLQSSF [PLD5] | 2.36 ± 0.22 | 2.72 ± 0.22 | – | –
HGDDLKNTKNEISELTRLIQRIRS [KRT71] | 2.77 ± 0.18 | 3.11 ± 0.3 | – | –
LPVNSPMNKGDTEVMKCIVEVISD [CHGA] | 3.22 ± 0.2 | 3.27 ± 0.19 | – | –
NAVRSAMKSEEQKIKDARKGPLVP [KMT5A] | 4.75 ± 0.11 | 5.07 ± 0.13 | – | –
MSGRSKRESRGSTRGKRESESRGS [USP39] | 4.96 ± 0.12 | 5 ± 0.46 | – | –
ALFFKNIMNIIDIVSILPYFITLG [KCNA4] | 2.86 ± 0.21 | 3.43 ± 0.4 | – | –
ESAAFSQGSRSGVSGGSRSLNMSR [PHTF1] | 4.44 ± 0.17 | 4.5 ± 0.23 | – | –
NYGADTNTRNYEGQTPLAVSISIS [ASB7] | 2.65 ± 0.45 | 2.77 ± 0.48 | – | –
PSATRAKPGPQDTVERPFYDLWAS [NOP53] | 3.08 ± 0.37 | 3.24 ± 0.37 | – | –
EAFWAEWKDLTLSTRPEEGCSLHE [TCAP] | 3.98 ± 0.18 | 4 ± 0.2 | – | –
CVKNELLPSHPLELSEKNFQLNQD [POMP] | 4.42 ± 0.1 | 4.57 ± 0.14 | – | –
RLKTRSWAGERSRRELCSRLQDQ [CDC25B] | – | – | 4.02 ± 0.17 | 4.13 ± 0.15
VVLCFSIANPNSLHHVKTMWYPEI [RHOBTB2] | 3.23 ± 0.42 | 3.16 ± 0.21 | – | –
LDDSTVARELAITDSEHSDAEVSC [RETREG3] | 5.52 ± 0.23 | 5.47 ± 0.24 | – | –
GGEEEDEDENIEVVYSKAASVPKV [EIF5] | 5.18 ± 0.14 | 4.93 ± 0.47 | – | –
SVMAIERCIGVTKPIFHSTKITSK [PTGFR] | 2.71 ± 0.16 | 2.98 ± 0.49 | – | –
PYDGNSSDPENWDRKLHSRPRKLY [BTBD10] | 3.35 ± 0.24 | 3.41 ± 0.34 | – | –
PSVRKKAGSFSRRLIKRFSFKSKP [C2CD2L] | 3.34 ± 0.56 | 3.35 ± 0.31 | – | –
ASMAPAAALPPVPSPPAAPSVADN [SERTAD1] | 5.3 ± 0.13 | 5.31 ± 0.42 | – | –

Sequence | protein stability index [1] | protein stability index [2] | protein stability index [3] | protein stability index [4]
LKILKPSIPLERIHFDSYITCVSG [FBXO33] | 2.22 ± 0.41 | 2.23 ± 0.42 | – | –
PDDPEHLAARRQWRDECLMRLAKL [CRYL1] | 3.66 ± 0.6 | 3.83 ± 0.36 | – | –
AGSSTWERYFIPVSCFLTFNIFDW [SLC29A1] | 3.09 ± 0.2 | 3.05 ± 0.58 | – | –
SQKVLGLNEDPLKWWSDRLALFPL [ZBED1] | – | 2.14 ± 0.63 | – | –
EAGIKVHDVRLNGSAAGHVLVKDN [TENT5C] | 4.42 ± 0.17 | 4.61 ± 0.15 | – | –
RSEFTLMAKRIGKDLSNTFAKLEK [STX5] | 2.51 ± 0.33 | 2.31 ± 0.33 | – | –
GSEVVPVISPMYQLHKPLAEGTPR [IKZF1] | 3.56 ± 0.16 | 4.21 ± 0.49 | – | –
PENQEYFEKHRWPPVWYLKEEDHY [RHOBTB2] | 3.42 ± 0.23 | 3.57 ± 0.41 | – | –
SLSLRLPHQPVTAITRVSDRFSGE [SMTNL2] | 3.8 ± 0.28 | 4.16 ± 0.1 | – | –
NKTDVVLILELVSGGELFDFLAEK [DAPK3] | 2.55 ± 0.58 | 2.68 ± 0.96 | – | –
ELPPSLRAPPPGGWPLQPRVQWG [ZMAT5] | – | – | 2.75 ± 0.33 | 2.82 ± 0.099
SDSVIMTGSYNNFFRMFDRNTKRD [PPP2R2B] | 3.55 ± 0.18 | 3.63 ± 0.19 | – | –
SLAETECRYATQLQQIQGLIGGLE [KRT15] | 2.83 ± 0.24 | 2.91 ± 0.32 | – | –
ATYIFIFIGETLLSMNWAIVADIL [SPNS1] | 3.13 ± 0.39 | 2.68 ± 0.74 | – | –
RKRNPSRKKQHICDECGKHFSQGS [ZNF24] | 3.91 ± 0.19 | 4.12 ± 0.097 | – | –
VQEQQKQLQDQDQKLLEQTQIIGE [FBXO28] | 5.43 ± 0.28 | 5.36 ± 0.09 | – | –
KAFREEMKIFREKIEDFREEMWTF [CCDC70] | 2.35 ± 0.2 | 2.03 ± 0.54 | – | –
SGSGSGPGCGSVPGSGSGPGPGSG [SPAG8] | 5.08 ± 0.24 | 5.12 ± 0.12 | – | –
RTSRKFLACRLTPDMETKLLFMTS [INTS3] | 2.49 ± 0.37 | 2.33 ± 0.39 | – | –
NWQPAVPLMHMLHLSGALDFPRQS [SPATS1] | 2.07 ± 0.39 | 2.15 ± 0.52 | – | –
